Biological target: F-actin
Assay: cosedimentation with F-actin through a sucrose cushion, SDS-PAGE

With MacMARCKS the Kd was 53 nM and the stoichiometry (actin monomers per MacMARCKS) was 12.
